In patent US20060286609A1 (BIOCHECK, published 2006) one finds A450, binding result and Ka data, which are given here for one molecule.

One test deals with T1, Mouse Id1: Histidine (mouse, UniProt P20067-2 1-148).
T1 construct: E. coli fusion protein (vector pGW07); also called m-Id1-His; not shown: His-tag
T1 sequence: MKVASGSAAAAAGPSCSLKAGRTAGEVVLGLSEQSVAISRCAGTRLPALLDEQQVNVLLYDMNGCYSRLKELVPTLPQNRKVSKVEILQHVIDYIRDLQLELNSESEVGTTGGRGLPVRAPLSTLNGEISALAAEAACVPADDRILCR
The experiment in a line: ELISA, coated antigen, Ab 0.25 ug/ml. The method, then: (§1) Incubate plates at 2-8° C. overnight (16-24 hours). [0145] 11. Shake off the BSA solution. [0146] 12. Dispense 250 μL of 2.5% sucrose solution into each well. [0147] 13. Incubate plates at 2-8° C. for 4 hours. [0148] 14. Shake off sucrose solution. [0149] 15. Dry in vacuum at room temperature overnight. Screening Method [0150] 1. Dispense 100 μL of antibody diluent, diluted rabbit polyclonal anti-Id1 into appropriate wells. […] 2. Incubate at room temperature with mechanical shaking at 750 rpm for 90 minutes. [0152] 3. Remove the incubation mixture by flicking plate content into an appropriate waste container, followed by rinsing the wells 5 times with distilled water. […] 4. Strike the wells sharply onto absorbent paper or paper towels to remove all residual water droplets. [0154] 5. Dispense 100 μL of Goat Anti-Rabbit IgG-HRP Conjugate Reagent into each well. Gently mix for 5 seconds. [0155] 6. Incubate at room temperature with mechanical shaking at 750 rpm for 90 minutes. […] 7. Repeat procedures 3 and 4. [0157] 8. Dispense 100 μL of TMB Reagent into each well. Gently mix for 5 seconds. [0158] 9. Incubate at room temperature with mechanical shaking at 750 rpm for 20 minutes. [0159] 10. Add 100 μL of Stop Solution (1N HCl) into each well. [0160] 11. Gently mix for 10 seconds to ensure a complete mixing. […] 12. Read optical density (absorbance) at 450 nm. Results from this assay were used to select the rabbit sera with the highest antibodies titer that selectively reacts with mouse Id1 or human Id1 or both.
(§2) A comparison was carried out between the reactivity of the rabbit monoclonal anti-mouse Id1, clone #BCH-1/#37-2, of this invention and the mouse monoclonal anti-mouse/human Id1 from BD Pharmingen with the following antigens prepared in Example 5: mouse Id1:His, human Id1:His, human Id2:His, human Id3:His, and GST. These antigens and protein were used to coat the wells.
(§3) Materials and methods were those described in Example 9 except (a) Pharmingen's mouse monoclonal anti-mouse Id1 was used in addition to the rabbit monoclonal anti-mouse Id1 (Example 10), and (b) goat anti-mouse IgG-HRP conjugate was used to process the wells treated with the Pharmingen monoclonal antibody and polyclonal goat anti-rabbit IgG-HRP conjugate was used to process wells treated with rabbit monoclonal anti-mouse Id1.
In general terms: An ELISA detects its analyte on a solid surface through an enzyme-linked reagent.

The next test has as its target T2, Human Id3: Histidine (human, UniProt Q02535 1-119, limits assumed).
T2 construct: E. coli fusion protein (vector pGW07); also called h-Id3: His; not shown: His-tag
T2 sequence (looked up): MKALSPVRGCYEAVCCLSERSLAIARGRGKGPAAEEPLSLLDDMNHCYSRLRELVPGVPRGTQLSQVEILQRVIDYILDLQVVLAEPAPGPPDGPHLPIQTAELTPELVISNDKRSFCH
The experiment in a line: ELISA, coated antigen, Ab 0.25 ug/ml. The protocol:
as §1, §2, §3

Test [1] concerns the target T3, glutathione S-transferase (GST) (UniProt P08515 1-218 = GST).
T3 construct: Coated on wells as control for the fusion partner of the immunogen
The experiment in a line: ELISA, coated antigen, Ab 0.25 ug/ml. The protocol: as §1, §2, §3

Test [2] deals with T3, glutathione S-transferase (GST). The experiment in a line: ELISA, coated antigen, Ab up to 10.0 ug/ml. The essentials: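 Wells were coated with glutathione S-transferase and handled by an ELISA protocol. Coating buffers were 0.2 M sodium phosphate pH 6.5 and 10 mM potassium phosphate pH 7.4, with BSA/sodium azide and sucrose solutions. Antibodies were applied up to 10.0 ug/ml. Bound rabbit antibody was detected with goat anti-rabbit IgG-HRP conjugate and bound mouse antibody with goat anti-mouse IgG-HRP conjugate.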

The next test concerns the target T4, mouse Id1 protein (mouse, UniProt P20067-2 1-148).
T4 construct: No tag stated; Western blots: expressed in transfected HeLa cells (whole cell extract on SDS gel); IHC: endogenous in mouse mammary tumor tissue
T4 sequence: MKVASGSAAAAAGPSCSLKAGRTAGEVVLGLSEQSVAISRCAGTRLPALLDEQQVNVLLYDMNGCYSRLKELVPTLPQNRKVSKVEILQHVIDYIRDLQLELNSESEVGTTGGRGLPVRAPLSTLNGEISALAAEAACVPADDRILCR
Briefly: SPR (BIACORE 2000), antibody immobilized on CM5 chip, Id-1 as analyte, 1:1 Langmuir model. The protocol: (§4) Antibodies were immobilized on CM5 sensor chips. All SPR (surface plasmon resonance) assays were carried out in a BIACORE 2000 instrument. A mouse monoclonal antibody was used as reference labeled at the 2nd channel (Fc2) of the chip. BCH-1#37-2 was immobilized on the 4th (Fc4) channel. Final conjugation of antibodies on chip surface was 1878 RU for BCH-1#37-2. Mouse Id-1 and human Id-1 were applied as mobile analytes. The binding assays were carried out in HBS-P buffer (10 mM HEPES, pH 7.4, containing 150 mM sodium chloride, 0.005% surfactant P-20 detergent and 0.12% glycerol). Kinetics were determined with 8 different analyte concentrations ranging from […] to 573 nM. For analyses, 125 μl of analyte were injected (Kinject protocol) at 30 μl/min and the dissociation lasted for 240 seconds at the same flow rate. The surface was regenerated by washing with 50 μl solution of 100 mM glycine and 100 mM of HCl, pH 1.81, at 60 μl/min and the extra cleaning protocol was followed. The kinetic analyses of sensograms were based on the Langmuir (1:1) binding model. Both association rate constant and dissociation rate constants for the interaction of mouse Id-1 and human Id-1 with the immobilized antibodies were determined from the analysis of sensograms using the Biaevaluation software, version 3.0. […]
(In general: In SPR one partner is held on a chip, and binding of the other changes the refractive index at the surface.)

The target of the next test is T5, human Id1 protein (human, UniProt P41134 1-155).
T5 construct: No tag stated; Western blots: endogenous in HeLa and other human cancer cell extracts; IHC: endogenous in human mammary tumor tissue
T5 sequence: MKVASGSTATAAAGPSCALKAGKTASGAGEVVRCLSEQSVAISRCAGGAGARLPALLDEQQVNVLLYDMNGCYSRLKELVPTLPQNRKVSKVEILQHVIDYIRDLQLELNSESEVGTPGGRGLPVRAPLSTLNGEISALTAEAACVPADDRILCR
Described as above. The method, then: as §4

T3 sequence (P08515 whole entry, the tested form may be a part): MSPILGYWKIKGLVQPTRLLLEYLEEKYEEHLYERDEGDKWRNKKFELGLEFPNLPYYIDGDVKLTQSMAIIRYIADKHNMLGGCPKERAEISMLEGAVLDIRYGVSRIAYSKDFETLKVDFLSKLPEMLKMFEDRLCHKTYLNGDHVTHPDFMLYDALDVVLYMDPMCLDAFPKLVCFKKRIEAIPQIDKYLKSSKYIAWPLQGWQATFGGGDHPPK

B1: rabbit monoclonal anti-mouse Id1, clone #BCH-1/#37-2 (antibody, V domains shown)
VH: QSVEESGGRLVTPGTPLTLTCKVSGFDINSYAMDWFRQAPGKGLEWIGMMSTRGNTYYTSWAKGRFTISKTSSTTVDLKMTSLTTEDTATYFCARGGLWGPGTLVTVSS
VL: RVLTQTASPVSAAVGGTVTINCQASQSVYNGNRLGWYQLKPGQSPKELIHDASTLASGVPSRFRGSGSGTQFTLTINDVQCDDAATYYCVGSYACSTGDCNVFGGGTEVVVK
notes: Rabbit IgG from hybridoma, Protein G purified; also called m Id1 MoAb 37-2; Rabbit Monoclonal Anti-Mouse Id1 (#37-2)
For the molecule B1, the values for the A450 (with Mouse Id1: Histidine; with Human Id3: Histidine; in test [1]) were 2 A450, 0.047 A450 and 0.051 A450, respectively. Further, the binding result in test [2] was “no binding”. Moreover, the Ka in the test with mouse Id1 protein was determined as 2.9e+11 M⁻¹; with human Id1 protein, 2.9e+09 M⁻¹.
